Results on four molecules are retold here after patent publication US20070178098A1 (Merck KGaA, published 2007).

In one assay the target is T1, human IL-6Ralpha (human, UniProt P08887 20-358, limits assumed).
T1 construct: also called IL-6Ralpha alone
T1 sequence (looked up): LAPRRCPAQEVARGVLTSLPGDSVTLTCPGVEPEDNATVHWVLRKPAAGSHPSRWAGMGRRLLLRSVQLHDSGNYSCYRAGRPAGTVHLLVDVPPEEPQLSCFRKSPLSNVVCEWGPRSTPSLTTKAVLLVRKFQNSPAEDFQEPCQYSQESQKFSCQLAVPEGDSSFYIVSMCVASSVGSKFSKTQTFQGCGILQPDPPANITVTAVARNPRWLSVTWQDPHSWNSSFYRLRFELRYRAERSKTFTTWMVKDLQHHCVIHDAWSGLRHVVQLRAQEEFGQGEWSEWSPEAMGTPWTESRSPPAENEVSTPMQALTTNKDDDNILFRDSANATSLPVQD
The assay can be described thus: plate binding assay read as OD450, antibody titrated on IL6Ralpha alone.

The target in assay [1] is T2, Fc-IL6Ralpha-IL6 (human IL-6Ralpha and IL-6; mouse Fc).
T2 construct: Fusion of a mouse IgG gamma2a Fc, the extracellular domains of human IL-6Ralpha and human IL-6; also called Fc-IL6Ralpha-IL6 fusion protein; muFc-IL6Ralpha-IL6
The assay can be described thus: plate binding assay read as OD450, antibody titrated on Fc-IL6Ralpha-IL6.

In a further assay the target is T3, Fc-IL6 (human IL-6; mouse Fc).
T3 construct: also called Mature Fc-IL6
T3 chain: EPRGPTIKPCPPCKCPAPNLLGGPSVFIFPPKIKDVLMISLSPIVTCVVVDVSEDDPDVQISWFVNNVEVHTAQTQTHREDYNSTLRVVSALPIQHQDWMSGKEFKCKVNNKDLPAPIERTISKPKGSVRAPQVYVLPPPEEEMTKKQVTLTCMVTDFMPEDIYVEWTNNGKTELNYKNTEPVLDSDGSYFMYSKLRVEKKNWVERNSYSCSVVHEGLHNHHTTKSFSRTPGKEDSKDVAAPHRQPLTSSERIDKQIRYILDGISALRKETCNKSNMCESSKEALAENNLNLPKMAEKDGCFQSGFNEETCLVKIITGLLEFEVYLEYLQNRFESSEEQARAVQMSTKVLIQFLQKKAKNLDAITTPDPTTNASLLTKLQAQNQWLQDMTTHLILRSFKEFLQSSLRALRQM
As to the kind of experiment: binding to immobilized Fc-IL6 (screen of paragraph 73).

Assay [2] addresses T2, Fc-IL6Ralpha-IL6. The assay can be described thus: competition assay: antibody titrated, inhibition of the binding of Fc-IL6Ralpha-IL6 to gp130-Fc; half of the antibody's own maximal inhibition. On the procedure:
To further characterize the antibodies that recognize IL-6, the following competition tests were performed. First, the ability of the monoclonal antibodies to inhibit the interaction between Fc-IL6Ralpha-IL6 and gp130-Fc was tested. The inhibition assays were performed based on the methods described by Scheller et al. J. Immuno. Methods, 291:93-100 (2004), the teachings of which are hereby incorporated by reference. […] Second, inhibition of the interaction between Fc-IL6 and Fc-IL6Ralpha by the antibodies was tested.

Assay [3] addresses T4, human IL-6 (human, UniProt P05231 30-212).
T4 construct: The Biacore text says only 'IL-6 protein'; also called interleukin-6; IL-6 protein
As to the kind of experiment: plate binding assay read as OD450, antibody titrated on IL6 (form of the coated IL-6 not given for this figure).

The target in assay [4] is T4, human IL-6. As to the kind of experiment: Biacore, antibody immobilized on chip, IL-6 passed over. On the procedure:
The antibodies were immobilized on a chip; IL-6 protein was passed over the chip, and on-rates and off-rates were measured.

Assay [5] deals with T2, Fc-IL6Ralpha-IL6. The assay can be described thus: cell-based or functional assay.

B1: Mab#309 (antibody, V domains shown)
VH: EVKLEESGGGLVQPGGSMKLSCVASGFTFSNYWMNWVRQSPEKGLEWVAEIRLKSNKGATHYAESVKGRFTISRDDSKSSVYLQMNNLRAEDTGIYYCASLLYDGYLHWGQGTLVTVSA
VL: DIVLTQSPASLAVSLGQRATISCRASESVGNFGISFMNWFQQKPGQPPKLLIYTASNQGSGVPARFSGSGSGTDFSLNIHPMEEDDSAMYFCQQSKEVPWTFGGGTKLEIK
notes: Mouse IgG monoclonal from a hybridoma; V regions were amplified with primers specific for mouse IgG gamma1 VH and Vk; also called antibody 309
What is called EC50 (read off the curve) is the concentration that produces a half-maximal response. High values mean lower potency in that assay, low ones higher potency in that assay. As usually defined, the Kd is the concentration at which binding is half-saturated. Low values mean a tighter complex, high ones a looser complex. One may read the koff as a measure of how fast the partners let go of each other. High values mean fast dissociation, low ones slow dissociation. The kon is the rate constant with which the complex forms. A low value points to slow association. On to B1, for which the binding result with human IL-6Ralpha is “no binding (tested: 1 ug/ml)”. In addition, the 50% effective concentration (EC50 (read off the curve)) in the assay with Fc-IL6Ralpha-IL6 [1] is around 3 ng/mL. Also, the binding result with Fc-IL6 is on record as “binds”. Also, the “IC50 (read off the curve)” value with Fc-IL6Ralpha-IL6 [2] was around 200 ng/mL. Further, in the assay with human IL-6 [3], the “EC50 (read off the curve)” value is around 3 ng/mL. In the assay with human IL-6 [4], this molecule came in with a dissociation constant (Kd) of 0.135 nM, a koff of 0.00011 s⁻¹ and an on-rate (kon) of 800000 M⁻¹ s⁻¹.

B2: Mab#471 (antibody, V domains shown)
VH: EVKFEESGGGLVQPGGSMKLSCVASGFSFSNYWMNWVRQSPEKGLEWVAEIRLTSNKQAIYYAESVKGRFTISRDDSKSSVYLQMNNLRAEDTGIYYCASLFYDGYLHWGQGTLVTVSA
VL: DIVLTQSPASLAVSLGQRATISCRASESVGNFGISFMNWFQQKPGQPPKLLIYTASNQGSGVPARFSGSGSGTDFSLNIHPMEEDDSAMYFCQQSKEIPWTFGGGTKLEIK
notes: Mouse IgG monoclonal from a hybridoma; V regions were amplified with primers specific for mouse IgG gamma1 VH and Vk
As to B2, the results for the binding result with human IL-6Ralpha and with Fc-IL6 were “no binding (tested: 1 ug/ml)” and “binds”, respectively. Further, the “EC50 (read off the curve)” value was around 3 ng/mL with Fc-IL6Ralpha-IL6 [1] and around 5 ng/mL in the assay with human IL-6 [3]. For the same molecule, the “IC50 (read off the curve)” value with Fc-IL6Ralpha-IL6 [2] was around 200 ng/mL. In addition, the “haptoglobin level in mice given muFc-IL6Ralpha-IL6, relative to the positive control group at 24 hours” value with Fc-IL6Ralpha-IL6 [5] was around 30%. The Kd with human IL-6 [4] worked out at 0.0075 nM. The same molecule showed an off-rate (koff) in the assay with human IL-6 [4] of 1.4e-05 s⁻¹. In the assay with human IL-6 [4], the on-rate (kon) was found to be 1.8e+06 M⁻¹ s⁻¹.

B3: Mab#476 (antibody, V domains shown)
VH: EVKLEESGGGLVQPGGSMKLSCAASGFTFSDAWMDWVRQSPEKGLEWVAEIRSKANNHATYYAESVKGRFTISRDDSKSSVYLQMNSLRAEDTGIYYCTTPTLYGAMDYWGQGTSVTVSA
VL: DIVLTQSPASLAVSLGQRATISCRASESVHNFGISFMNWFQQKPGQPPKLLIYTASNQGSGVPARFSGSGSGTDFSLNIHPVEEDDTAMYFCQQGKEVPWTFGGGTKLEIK
notes: Mouse IgG monoclonal from a hybridoma; V regions were amplified with primers specific for mouse IgG gamma1 VH and Vk; also called antibody 476
On to B3, for which the binding result with human IL-6Ralpha is “no binding (tested: 1 ug/ml)”; with Fc-IL6 it was “binds”. Besides, the 50% effective concentration (EC50 (read off the curve)) is around 6 ng/mL in the assay with Fc-IL6Ralpha-IL6 [1] and around 5 ng/mL with human IL-6 [3]. In addition, in the assay with Fc-IL6Ralpha-IL6 [2], the “IC50 (read off the curve)” value is around 200 ng/mL. The dissociation constant Kd with human IL-6 [4] was 0.047 to 0.106 nM. For the same molecule, in the assay with human IL-6 [4], the koff is 0.00012 to 0.00026 s⁻¹. The same molecule displayed an association rate constant (kon) with human IL-6 [4] of 2.5e+06 to 2.6e+06 M⁻¹ s⁻¹.

B4: Mab#195 (antibody, V domains shown)
VH: EVKLEESGGGLVQPGGSMKLSCVASGFTFSNYWMNWVRQSPEKGLEWVAEIRLKSNNYATHYAESVKGRFTISRDDSKSSVYLQMNNLRAEDTGIYYCTREDYYGYPDYWGQGTTLTVSS
VL: not shown
notes: Mouse IgG monoclonal from a hybridoma; V regions were amplified with primers specific for mouse IgG gamma1 VH and Vk; also called antibody 195
B4: the binding result with human IL-6Ralpha was “no binding (tested: 1 ug/ml)”. Moreover, the concentration for a half-maximal effect (EC50 (read off the curve)) with Fc-IL6Ralpha-IL6 [1] was around 4 ng/mL. Also, in the assay with Fc-IL6, the binding result is on record as “binds”. Besides, the “IC50 (read off the curve)” value with Fc-IL6Ralpha-IL6 [2] was around 100 ng/mL. Also, in the assay with human IL-6 [3], the “EC50 (read off the curve)” value is around 4 ng/mL. In the assay with human IL-6 [4], the Kd amounted to 2 nM, the koff was determined as 0.0048 s⁻¹ and the kon amounted to 2.4e+06 M⁻¹ s⁻¹.
